Six substances from publication doi:10.1101/2024.12.10.627806 can be followed below.

Assay [1] has as its target tail terminator protein (80α gp52) (Staphylococcus aureus bacteriophage 80α). As to the kind of experiment: cryo-EM structure; focused reconstruction of the neck of purified SaPI1 virions with C6 symmetry, 3.1 Å; AlphaFold2 models fitted and refined in ISOLDE; virions in 20 mM Tris-HCl pH 7.8, 50 mM NaCl, 4 mM CaCl2, 1 mM MgSO4, treated with Benzonase.
For assay [2], the target named is head-tail joining protein (80α gp50) (Staphylococcus aureus bacteriophage 80α). The description is as above.
For assay [3], the target named is tape measure protein (80α gp56) (Staphylococcus aureus bacteriophage 80α). In words: cryo-EM structure; asymmetric (C1) reconstruction of the neck of purified SaPI1 virions after symmetry expansion and masked classification on the tail interior, 3.4 Å (3.54 Å in the methods); AlphaFold2/AlphaFold3 models fitted.
Assay [4] addresses portal protein (80α gene product 42) (Staphylococcus aureus bacteriophage 80α). In words: cryo-EM structure; focused reconstruction of the neck of purified SaPI1 virions with C6 symmetry, 3.1 Å; AlphaFold2 models fitted and refined in ISOLDE; virions in 20 mM Tris-HCl pH 7.8, 50 mM NaCl, 4 mM CaCl2, 1 mM MgSO4, treated with Benzonase.
For assay [5], the target named is major tail protein (80α gp53) (Staphylococcus aureus bacteriophage 80α). Described as above.
The target of assay [6] is head-to-tail connector protein (80α gp49) (Staphylococcus aureus bacteriophage 80α). Described as above.

As to “tail terminator protein (80α gp52) (natural protein)”, the stoichiometry N (commonly a count of units in the complex or per binding partner) in assay [1] was 6.

As for “head-tail joining protein (80α gp50) (natural protein)”, in assay [2], the stoichiometry N is 6.

The substance “tape measure protein (80α gp56) (natural protein)” displayed a stoichiometry N in assay [3] of 3.

The substance “portal protein (80α gene product 42) (natural protein)” had a stoichiometry N in assay [4] of 12.

“major tail protein (80α gp53) (natural protein)” displayed a stoichiometry N in assay [5] of 6.

In assay [6], “head-to-tail connector protein (80α gp49) (natural protein)” returned a stoichiometry N of 12.
